Reference: article PMC4859805, “Molecular mechanism of activation-triggered subunit exchange in Ca^2+/calmodulin-dependent protein kinase II” (eLife, 2016)
Where a chain is given by its changes, count along the chain named. Names may count otherwise. “And” between values parts separate entries of the source, which are not always exact repeats. Equal entries are not always repeated. Values belong to the molecule of their own block, whether it stands above or below them. Square brackets hold non-standard residues; d marks the D form. Ends that are not written are not given here. pT = C[C@@H](OP(=O)(O)O)[C@H](N)C(=O)O

T1: human CaMKII-α hub (Homo sapiens, UniProt Q9UQM7)
T1 construct: human CaMKII-α hub consisted of residues 345–475 (UNIPROT id: Q9UQM7); 6-histidine tag with PreScission protease site (N, cleaved yes); made in house; host or cells: E. coli BL21
T1 sequence (Q9UQM7 345-475): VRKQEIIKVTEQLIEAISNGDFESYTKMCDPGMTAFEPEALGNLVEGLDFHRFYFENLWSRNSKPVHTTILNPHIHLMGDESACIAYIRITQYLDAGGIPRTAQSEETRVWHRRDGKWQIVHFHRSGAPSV

B1: Peptide C, unlabeled (human CaMKII-α 290-309 plus C-terminal cysteine, phosphorylated on Thr 305) (peptide)
peptide: LKKFNARRKLKGAIL[pT]TMLAC
notes: human CaMKII-α, residues 290-309; added C-terminal cysteine; also called peptide phosphorylated on Thr 305; source: synthetic peptide, bought: Elim Biopharm, HPLC purified
B2: human CaMKII-α hub domain (domain or fragment, UniProt Q9UQM7 345-475, looked up)
chain: T1 sequence (Q9UQM7 345-475)
notes: Ca2+/calmodulin-dependent protein kinase II alpha, human, hub domain; residues 345-475 are stated for the crystallization construct; The limits are stated only for the crystallization construct; also called the hub; isolated hub; source: E. coli BL21, purified (Ni-NTA, Q-FF, Superose 6); not shown: His6, N-terminal, cleaved; copies: 12 or 14
B3: human CaMKII-α hub domain F397A (domain or fragment, UniProt Q9UQM7 345-475, looked up)
chain: T1 sequence (Q9UQM7 345-475) with F53A
notes: Ca2+/calmodulin-dependent protein kinase II alpha, human, hub domain; residues 345-475 are stated for the crystallization construct of the wild type; residue number according to PDB 1HKX; also called F397A mutant hub; mutant hub; source: E. coli BL21, purified; not shown: His6, N-terminal, cleaved
B4: human CaMKII-α hub, crystallization construct with uncleaved expression tag (domain or fragment)
chain: GSSHHHHHHSSGLEVLFQGPHMVRKQEIIKVTEQLIEAISNGDFESYTKMCDPGMTAFEPEALGNLVEGLDFHRFYFENLWSRNSKPVHTTILNPHIHLMGDESACIAYIRITQYLDAGGIPRTAQSEETRVWHRRDGKWQIVHFHRSGAPSV
notes: uncleaved N-terminal expression tag: hexahistidine followed by a PreScission protease cleavage site; written as a part because it docks on the hub; Ca2+/calmodulin-dependent protein kinase II alpha, human, hub domain, residues 345-475; The 22-residue tag was left uncleaved for crystallization; also called dodecameric human CaMKII-α hub; source: E. coli BL21, purified (Ni-NTA, Q-FF, Superose 6, …)
B5: Peptide D, unlabeled (human CaMKII-α 290-309 plus C-terminal cysteine, phosphorylated on Thr 306) (peptide)
peptide: LKKFNARRKLKGAILT[pT]MLAC
notes: human CaMKII-α, residues 290-309; added C-terminal cysteine; also called peptide phosphorylated on Thr 306; source: synthetic peptide, bought: Elim Biopharm, HPLC purified
B6: Peptide B (human CaMKII-α 290-309, unphosphorylated, unlabeled) (peptide)
peptide: LKKFNARRKLKGAILTTMLA
notes: also called the unphosphorylated peptide; wild type peptide; source: synthetic peptide, gift of Leta Nutt (St. Jude Children's Research Hospital), HPLC purified

Legend:
[1] = molecular target: T1, human CaMKII-α hub; test: Fluorescence polarization competition assay with unlabeled peptides; format: binding
Description: For the competition experiments, 2 nM of various labeled peptides were bound to 30 μM of the hub, resulting in high fluorescence polarization. Upon titration with the corresponding unlabeled versions of the peptides, the labeled peptides were competed off, and the fluorescence polarization decreased to the baseline value (Figure 3C–E). The value of the inhibition constant, IC50, is ~100 μM for the unlabeled peptides, whether phosphorylated or not. […]
(§1) The fluorescence polarization binding experiments were initiated by adding 15 μL of 2 nM BODIPY labeled peptides (buffer: 25 mM Tris at pH 8.0) to 15 μL of different concentrations of the human CaMKII-α hub domain (ranging from 0–1000 μM in 25 mM Tris at pH 8.0, 150 mM KCl, 10% glycerol and 0.02% Tween). […] The fluorescence polarization was read from 20 μL of these reaction mixtures in opaque black 96-well plates using a Synergy H4 hybrid microplate reader with a 485/20 nm excitation filter, and a 528/20 nm emission filter. Error bars are calculated from the standard error of mean between replicates of experiments. […]
where, A is the observed fluorescence polarization (FP) value, Af is the FP value for free labeled ligand, A0 is the FP value in the absence of unlabeled ligand, KD is the dissociation constant, [P]tot is the total protein concentration, and [L]tot is the total concentration of the unlabeled ligand. […]

[2] = molecular target: N. vectensis CaMKII-A hub domain (Nematostella vectensis); test: crystal structure; N. vectensis CaMKII-A hub; 0.2 M potassium thiocyanate, 20% w/v PEG 3350, pH 7.0
[3] = molecular target: N. vectensis CaMKII-B hub domain (Nematostella vectensis); test: crystal structure; N. vectensis CaMKII-B hub; 2.5 M sodium chloride, 0.1 M acetate pH 4.2, 0.25 M lithium sulphate
[4] = molecular target: T1, human CaMKII-α hub; test: Fluorescence polarization, direct titration of hub to BODIPY-labeled peptide; details: 2 nM Bodipy-FL-labeled peptide, hub 0-1000 μM, 25 mM Tris pH 8.0; non-saturable binding at high hub concentrations, value not relied on; read-out: KD derived from direct titration of the hub to the labeled peptide
Text: To analyze the mechanism of subunit exchange, we focused initially on potential interactions between the CaM-binding element and the hub. We had shown previously that mutation of the CaM-binding element blocks subunit exchange, and that phosphorylation of Thr 305 and Thr 306 in the CaM-binding element potentiates exchange ([Stratton et al., 2014]). We prepared both phosphorylated and unphosphorylated forms of peptides spanning the CaM-binding element of CaMKII-α (see Materials and methods). The peptides were labeled with a fluorophore (Bodipy-FL maleimide) at the C-terminal end, and binding was monitored by changes in fluorescence polarization (Figure 3A). To a fixed volume of labeled peptide (2 nM), increasing concentrations of the hub was added, and the change in fluorescence polarization was monitored (Figure 3B). […]
as §1, with “filter.” for “filter. Error bars are calculated from the standard error of mean between replicates of experiments.”

[5] = molecular target: S. rosetta CaMKII holoenzyme, full length, wild type (Salpingoeca rosetta); test: native MS; full-length S. rosetta CaMKII at 3 μM; 1 M ammonium acetate pH 7.2
[6] = molecular target: S. rosetta CaMKII holoenzyme, full length, wild type (Salpingoeca rosetta); test: native MS; full-length S. rosetta CaMKII at 12 μM; 1 M ammonium acetate pH 7.2
[7] = molecular target: S. rosetta CaMKII holoenzyme, full length, wild type (Salpingoeca rosetta); test: native MS; full-length S. rosetta CaMKII at 48 μM; 1 M ammonium acetate pH 7.2
[8] = molecular target: S. rosetta CaMKII holoenzyme, full length, wild type (Salpingoeca rosetta); test: SEC; analytical gel filtration, Superose 6 10/300, 25 mM Tris pH 8.0, 150 mM KCl, 10% glycerol, 1 mM TCEP or 2 mM DTT; injection at 700 nM subunits; tryptophan fluorescence
[9] = molecular target: S. rosetta CaMKII hub domain (Salpingoeca rosetta); test: SEC-MALS; S. rosetta hub at ∼3.2 mg/ml (~200 μM) on Superdex 200 10/300; 25 mM Tris pH 8.0, 150 mM KCl, 1 mM TCEP, 10% glycerol; 25°C
[10] = molecular target: hub-△kinase (hub, linker and autoinhibitory segment of human CaMKII-α, without the kinase domain) (human); test: SEC; analytical gel filtration, Superose 6 10/300, 25 mM Tris pH 8.0, 150 mM KCl, 10% glycerol, 1 mM TCEP or 2 mM DTT; injection at 700 nM subunits; tryptophan fluorescence
[11] = molecular target: B2; test: fluorescence polarisation; competition: 2 nM BODIPY labelled peptide bound to 30 μM hub, unlabeled peptide 0-500 μM added; KD from a non-linear fit assuming one peptide site per subunit and equal KD of labelled and unlabeled peptide; details: both partners purified
[12] = molecular target: the molecule itself; test: native MS; human hub; nanoelectrospray Q-TOF, 1 M ammonium acetate pH 7.2; CID MS/MS at 30 V collision energy
[13] = molecular target: the molecule itself; test: native MS; F397A hub: 200 μM in 1 M ammonium acetate; 2 μM in 25 mM Tris, 1 mM TCEP, pH 8; 250 mM ammonium acetate, 25 mM Tris, 1 mM TCEP, pH 8; oligomer identity confirmed by CID
[14] = molecular target: the molecule itself; test: SEC; analytical gel filtration, Superose 6 10/300; elevated injection concentration of 3–5 μM; reinjection of the dodecamer/tetradecamer peak of the holoenzyme; pre-incubation with Mg2+-ATP for the holoenzyme
[15] = molecular target: the molecule itself; test: crystal structure; human CaMKII-α hub with uncleaved tag; 35% (v/v) MPD, 0.1 M HEPES pH 7.3

Kd ([1]; 2 nM labeled peptide bound to 30 μM hub, competed with unlabeled peptide 0-500 μM, 25 mM Tris pH 8.0, non-linear least squares fit, one peptide-binding site per subunit, labeled peptide A used for peptide B, read-out: KD from competition experiments): 52 µM
Molecule: CC[C@H](C)[C@H](NC(=O)[C@H](C)NC(=O)CNC(=O)[C@H](CCCCN)NC(=O)[C@H](CC(C)C)NC(=O)[C@H](CCCCN)NC(=O)[C@H](CCCNC(=N)N)NC(=O)[C@H](CCCNC(=N)N)NC(=O)[C@H](C)NC(=O)[C@H](CC(N)=O)NC(=O)[C@H](Cc1ccccc1)NC(=O)[C@H](CCCCN)NC(=O)[C@H](CCCCN)NC(=O)[C@@H](N)CC(C)C)C(=O)N[C@@H](CC(C)C)C(=O)N[C@H](C(=O)N[C@H](C(=O)N[C@@H](CCSC)C(=O)N[C@@H](CC(C)C)C(=O)N[C@@H](C)C(=O)N[C@@H](CS)C(=O)O)[C@@H](C)OP(=O)(O)O)[C@@H](C)O [peptide D]

Ability to compete the binding of the labeled peptide ([1]; hub bound to labeled peptide A, competition with unlabeled mutant peptides (Figure 3F)): fails to compete
Molecule: LKEFNAERKLEGAILTTMLA [Peptide G, triple mutant of the residues 290-309 peptide, three positively charged residues replaced by Glu]

stoichiometry N [2]: 14
Molecule: N. vectensis CaMKII-A hub domain (domain or fragment)

stoichiometry N [3]: 14
Molecule: N. vectensis CaMKII-B hub domain (domain or fragment)

Kd [4]: ~100 µM
Molecule: RRKLKGAILTTMLATRC [peptide A]

stoichiometry N [5]: 2 and 4
stoichiometry N [6]: 4 and 6
stoichiometry N [7]: 4 and 6 and 8
stoichiometry N [8]: 2
Molecule: S. rosetta CaMKII holoenzyme, full length, wild type

stoichiometry N [9]: 4
Molecule: S. rosetta CaMKII hub domain (domain or fragment)

percent of the sample in the dimer peak [10]: 35%
percent of the sample in the dodecamer/tetradecamer peak [10]: 65%
stoichiometry N [10]: 2
Molecule: hub-△kinase (hub, linker and autoinhibitory segment of human CaMKII-α, without the kinase domain) (domain or fragment)

Molecule: B1
IC50 [11]: ~100 µM
Kd [11]: ~60 µM

Molecule: B2
stoichiometry N [12]: 12 and 14

Molecule: B3
stoichiometry N [13]: 14
stoichiometry N [14]: 2

Molecule: B4
stoichiometry N [15]: 12

Molecule: B5
IC50 [11]: ~100 µM
Kd [11]: ~50 µM

Molecule: B6
IC50 [11]: ~100 µM
Kd [11]: ~90 µM
